Molecular target: the molecule itself
Experiment: low-temperature SDS-PAGE; aorta lysates of WT and LSP1-KO mice in NP40-based non-denaturing buffer (crude or after eNOS immunoprecipitation), not boiled, no reducing agent, 7% gel at 4 °C; anti-eNOS immunoblot; dimer to monomers

B1: endothelial nitric oxide synthase (eNOS), mouse, native (enzyme, mouse (endogenous in aorta), UniProt P70313 1-1202, looked up)
chain: MGNLKSVGQEPGPPCGLGLGLGLGLCGKQGPASPAPEPSQAPAPPSPTRPAPDHSPPLTRPPDGPRFPRVKNWEVGSITYDTLSAQAQQDGPCTSRRCLGSLVFPRKLQSRPTQGPSPTEQLLGQARDFINQYYNSIKRSGSQAHEQRLQEVEAEVAATGTYQLRESELVFGAKQAWRNAPRCVGRIQWGKLQVFDARDCRTAQEMFTYICNHIKYATNRGNLRSAITVFPQRCPGRGDFRIWNSQLIRYAGYRQQDGSVRGDPANVEITELCIQHGWTPGNGRFDVLPLLLQAPDEPPELFTLPPEMVLEVPLEHPTLEWFAALGLRWYALPAVSNMLLEIGGLEFPAAPFSGWYMSSEIGMRDLCDPHRYNILEDVAVCMDLDTRTTSSLWKDKAAVEINVAVLHSYQLAKVTIVDHHAATASFMKHLENEQKARGGCPADWAWIVPPISGSLTPVFHQEMVNYFLSPAFRYQPDPWKGSAAKGAGITRKKTFKEVANAVKISASLMGTVMAKRVKATILYGSETGRAQSYAQQLGRLFRKAFDPRVLCMDEYDVVSLEHEALVLVVTSTFGNGDPPENGESFAAALMEMSGPYNSSPRPEQHKSYKIRFNSVSCSDPLVSSWRRKRKESSNTDSAGALGTLRFCVFGLGSRAYPHFCAFARAVDTRLEELGGERLLQLGQGDELCGQEEAFRGWAQAAFQAACETFCVGEDAKAAARDIFSPKRSWKRQRYRLSTQAESLQLLPGLTHVHRRKMFQATILSVENLQSSKSTRATILVRLDTGGQEGLQYQPGDHIGVCPPNRPGLVEALLSRVEDPPPSTEPVAVEQLEKGSPGGPPPGWVRDPRLPPCTLRQALTYFLDITSPPSPRLLRLLSTLAEESSEQQELEALSQDPRRYEEWKWFSCPTLLEVLEQFPSVALPAPLILTQLPLLQPRYYSVSSAPSAHPGEIHLTIAVLAYRTQDGLGPLHYGVCSTWMSQLKAGDPVPCFIRGAPSFRLPPDPNLPCILVGPGTGIAPFRGFWQDRLHDIEIKGLQPAPMTLVFGCRCSQLDHLYRDEVLDAQQRGVFGQVLTAFSRDPGSPKTYVQDLLRTELAAEVHRVLCLEQGHMFVCGDVTMATSVLQTVQRILATEGGMELDEAGDVIGVLRDQQRYHEDIFGLTLRTQEVTSRIRTQSFSLQERQLRGAVPWSFDPPGPEIPGS
notes: mouse endothelial nitric oxide synthase, native protein of the aorta; dimer band at 260 kDa; Written as the protomer, for the row of the protein with itself; also called mouse eNOS; WT eNOS; source: endogenous, aorta lysate of 129/SvJ wild-type mice (also LSP1-KO mice)
Q: B1 was tested. Which “stoichiometry N” value did it give?
A: 2

Reference: paper PMC10813790, “Lymphocyte-Specific Protein 1 Regulates Expression and Stability of Endothelial Nitric Oxide Synthase” (Biomolecules, 2024)
